Patent US20170081417A1

How the values were obtained:
[1] = target: human OX40 extracellular domain fused to the Fc portion of human IgG1 (hOX40:hFc) (human); test: ELISA, OX40L-FLAG binding to coated hOX40:hFc
[2] = target: human OX40 extracellular domain fused to the Fc portion of human IgG1 (hOX40:hFc) (human); test: ELISA, blocking of OX40L-FLAG binding to coated hOX40:hFc
[3] = target: human OX40 (CD134), full length, expressed on cells (activated human T cells; EL4-OX40 and CHO-OX40 transfectants) (human) (UniProt P43489); test: flow cytometry titration on activated human T cells
[4] = target: human OX40 (CD134), full length, expressed on cells (activated human T cells; EL4-OX40 and CHO-OX40 transfectants) (human) (UniProt P43489); test: flow cytometry, blocking of OX40L-FLAG binding to activated human T cells
[5] = target: recombinant human OX40:mFc fusion protein (Alexis Corporation) (human) (UniProt P43489); test: cross-blocking ELISA, hOX40:mFc pre-incubated with L106; competitor: coated 112Y131
[6] = target: recombinant human OX40:mFc fusion protein (Alexis Corporation) (human) (UniProt P43489); test: cross-blocking ELISA, hOX40:mFc pre-incubated with L106; competitor: coated 112V8
[7] = target: human OX40 (CD134), full length, expressed on cells (activated human T cells; EL4-OX40 and CHO-OX40 transfectants) (human) (UniProt P43489); test: flow cytometry, OX40L-FLAG binding to activated human T cells

human OX40 (CD134), full length, expressed on cells (activated human T cells; EL4-OX40 and CHO-OX40 transfectants) (human), sequence (P43489 29-277 limits assumed): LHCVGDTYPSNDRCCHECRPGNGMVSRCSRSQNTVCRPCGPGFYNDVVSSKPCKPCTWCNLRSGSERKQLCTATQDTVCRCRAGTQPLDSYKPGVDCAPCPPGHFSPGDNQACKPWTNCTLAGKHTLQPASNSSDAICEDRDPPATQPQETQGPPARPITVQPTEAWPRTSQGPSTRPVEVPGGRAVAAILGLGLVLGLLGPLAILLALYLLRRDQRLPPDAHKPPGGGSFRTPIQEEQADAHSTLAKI
human OX40 extracellular domain fused to the Fc portion of human IgG1 (hOX40:hFc) (human), sequence (chain, as listed by the source limits assumed): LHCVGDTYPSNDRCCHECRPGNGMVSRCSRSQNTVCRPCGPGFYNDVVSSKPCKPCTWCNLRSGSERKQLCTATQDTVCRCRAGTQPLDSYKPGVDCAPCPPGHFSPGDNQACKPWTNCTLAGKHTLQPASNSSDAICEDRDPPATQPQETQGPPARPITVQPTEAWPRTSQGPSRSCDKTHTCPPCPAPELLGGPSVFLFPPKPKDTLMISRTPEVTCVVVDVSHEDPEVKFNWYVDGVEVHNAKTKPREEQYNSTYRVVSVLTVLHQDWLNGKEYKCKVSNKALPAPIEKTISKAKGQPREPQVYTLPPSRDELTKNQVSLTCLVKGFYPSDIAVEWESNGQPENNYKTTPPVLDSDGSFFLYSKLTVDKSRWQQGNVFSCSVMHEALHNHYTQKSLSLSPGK
recombinant human OX40:mFc fusion protein (Alexis Corporation) (human), sequence (P43489 29-214): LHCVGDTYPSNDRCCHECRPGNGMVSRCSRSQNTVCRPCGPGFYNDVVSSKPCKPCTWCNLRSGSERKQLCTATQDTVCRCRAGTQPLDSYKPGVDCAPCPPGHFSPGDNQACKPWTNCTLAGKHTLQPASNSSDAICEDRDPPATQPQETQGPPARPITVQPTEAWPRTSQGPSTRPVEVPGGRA

## mouse anti-human OX40 antibody L106 (Becton Dickinson, catalog number 340420)
[1]
  percent inhibition of OX40L binding: 95%
[2]
  IC50: 0.982 µg/mL
[3]
  BMAX Geo Mean (geometric mean fluorescence): 52
  Kd: 1 nM
[4]
  IC50: 60.9 µg/mL
[5]
  percent reduction of binding: 10%
[6]
  percent reduction of binding: 10%
[7]
  percent inhibition of OX40L binding: 60%
